Patent publication US20200048372A1 (UCB, published 2020)

Experiments:
[1] = target: T1, human serum albumin (human, UniProt P02768 25-609); assay: SPR (Biacore)
T1 construct: also called HSA; HumanSA

[2] = target: T2, mouse serum albumin (mouse, UniProt P07724 25-608); assay: SPR (Biacore), purified construct captured, MSA injected
T2 construct: also called MSA; MurineSA

[3] = target: T1, human serum albumin; assay: SPR (Biacore), purified construct captured, HSA injected

| Kd [1] [nM] | koff [1] [s⁻¹] | kon [1] [M⁻¹ s⁻¹] | koff [2] [s⁻¹] | koff [3] [s⁻¹] | Binder |
| --- | --- | --- | --- | --- | --- |
| 51.6 | 0.0186 | 360000 | – | – | FabB-645dsFv (S3xG4S) with Fv heavy mutation T100aA (bispecific antibody, part only; not given: anti-OX40 Fab and linkers, V domains shown, not shown: another chain or arm of the molecule; large carriers; small tags and cut ends, Interchain disulfide between VH Cys44 and VL Cys100 (Kabat) of the dsFv) VH: EVQLLESGGGLVQPGGSLRLSCAVSGIDLSNYAINWVRQAPGKCLEWIGIIWASGTTFYATWAKGRFTISRDSTTVYLQMNSLRAEDTAVYYCARTVPGYSAAPYFDLWGQGTLVTVSS VL: DIVMTQSPSSVSASVGDRVTITCQSSPSVWSNFLSWYQQKPGKAPKLLIYEASKLTSGVPSRFKGSGSGTDFTLTISSLQPEDFATYYCGGGYSSISDTTFGCGTKVEIK |
| – | – | – | 0.000182 | 0.000206 | FabB-didAb, -dAbL1 (CK-G4Sx2) & dAbH1 (CH1-G4Sx2) (bispecific antibody, also called FabB-645Fv (G4Sx2); FabB-645Fv (2xG4S)) heavy: ASTKGPSVFPLAPSSKSTSGGTAALGCLVKDYFPEPVTVSWNSGALTSGVHTFPAVLQSSGLYSLSSVVTVPSSSLGTQTYICNVNHKPSNTKVDKKVEPKSCGGGGSGGGGSEVQLLESGGGLVQPGGSLRLSCAVSGIDLSNYAINWVRQAPGKGLEWIGIIWASGTTFYATWAKGRFTISRDSTTVYLQMNSLRAEDTAVYYCARTVPGYSTAPYFDLWGQGTLVTVSS light: RTVAAPSVFIFPPSDEQLKSGTASVVCLLNNFYPREAKVQWKVDNALQSGNSQESVTEQDSKDSTYSLSSTLTLSKADYEKHKVYACEVTHQGLSSPVTKSFNRGECGGGGSGGGGSDIVMTQSPSSVSASVGDRVTITCQSSPSVWSNFLSWYQQKPGKAPKLLIYEASKLTSGVPSRFKGSGSGTDFTLTISSLQPEDFATYYCGGGYSSISDTTFGGGTKVEIK |
